Assay results published in US20190064166.

Tested on: PAPPA2 (pappalysin-2), full-length urinary protein from vAKI patients

Q: Cathepsin D was tested. Which “digestion of urinary PAPPA2, loss of PAPPA2 immunoreactivity on immunoblot” value did it give?
A: the addition of cathepsin D to vAKI samples digested PAPPA2
